Assays:
Δ190-200 RIG-I = molecular target: T1, Δ190-200 RIG-I (human, UniProt O95786 1-925, del190-200); experiment: EMSA; streptavidin, ±2 mM ATP; oligomerizes with ATP; Buffer A: 50 mM MOPS pH 7.4, 5 mM DTT, 5 mM MgCl2, 0.01% Tween20, 25°C (fluorimetry: 15 nM RNA; ATPase: 15 nM protein, 1 mM ATP); EMSA in Buffer A at 4°C; settings: protein: recombinant; tags: 6xHis-SUMO removed by Ulp1; label: 3' DY547 and 5' biotin on strand 2; blunt
T1 sequence: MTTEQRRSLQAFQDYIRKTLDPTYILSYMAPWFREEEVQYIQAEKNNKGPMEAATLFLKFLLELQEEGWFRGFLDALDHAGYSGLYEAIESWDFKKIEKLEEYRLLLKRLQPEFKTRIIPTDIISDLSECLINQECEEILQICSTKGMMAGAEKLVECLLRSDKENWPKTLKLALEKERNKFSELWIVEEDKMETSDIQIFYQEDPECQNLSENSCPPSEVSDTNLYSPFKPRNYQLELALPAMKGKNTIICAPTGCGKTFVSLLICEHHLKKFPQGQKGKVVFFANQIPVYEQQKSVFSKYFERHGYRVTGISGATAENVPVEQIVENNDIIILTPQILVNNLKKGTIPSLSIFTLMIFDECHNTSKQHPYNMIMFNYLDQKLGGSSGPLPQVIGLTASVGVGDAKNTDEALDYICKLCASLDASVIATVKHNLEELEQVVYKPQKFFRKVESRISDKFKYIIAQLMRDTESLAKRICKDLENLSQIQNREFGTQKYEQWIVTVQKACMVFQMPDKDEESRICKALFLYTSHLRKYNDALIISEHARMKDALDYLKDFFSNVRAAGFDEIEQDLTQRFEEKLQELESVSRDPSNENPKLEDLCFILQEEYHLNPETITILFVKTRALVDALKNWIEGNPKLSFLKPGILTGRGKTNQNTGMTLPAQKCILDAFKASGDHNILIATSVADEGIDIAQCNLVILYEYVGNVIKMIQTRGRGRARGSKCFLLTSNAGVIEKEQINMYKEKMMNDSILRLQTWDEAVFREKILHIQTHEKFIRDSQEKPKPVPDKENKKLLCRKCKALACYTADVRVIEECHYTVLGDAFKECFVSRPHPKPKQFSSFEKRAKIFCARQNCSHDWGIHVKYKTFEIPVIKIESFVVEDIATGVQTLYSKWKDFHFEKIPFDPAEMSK

WT RIG-I = molecular target: T2, WT RIG-I (human, UniProt O95786 1-925); experiment: RNA-dependent ATPase titration (KD,app); 1 mM ATP; Buffer A: 50 mM MOPS pH 7.4, 5 mM DTT, 5 mM MgCl2, 0.01% Tween20, 25°C (fluorimetry: 15 nM RNA; ATPase: 15 nM protein, 1 mM ATP); EMSA in Buffer A at 4°C; settings: protein: recombinant; tags: 6xHis-SUMO removed by Ulp1; label: 3' DY547 and 5' biotin on strand 2; blunt
T2 sequence: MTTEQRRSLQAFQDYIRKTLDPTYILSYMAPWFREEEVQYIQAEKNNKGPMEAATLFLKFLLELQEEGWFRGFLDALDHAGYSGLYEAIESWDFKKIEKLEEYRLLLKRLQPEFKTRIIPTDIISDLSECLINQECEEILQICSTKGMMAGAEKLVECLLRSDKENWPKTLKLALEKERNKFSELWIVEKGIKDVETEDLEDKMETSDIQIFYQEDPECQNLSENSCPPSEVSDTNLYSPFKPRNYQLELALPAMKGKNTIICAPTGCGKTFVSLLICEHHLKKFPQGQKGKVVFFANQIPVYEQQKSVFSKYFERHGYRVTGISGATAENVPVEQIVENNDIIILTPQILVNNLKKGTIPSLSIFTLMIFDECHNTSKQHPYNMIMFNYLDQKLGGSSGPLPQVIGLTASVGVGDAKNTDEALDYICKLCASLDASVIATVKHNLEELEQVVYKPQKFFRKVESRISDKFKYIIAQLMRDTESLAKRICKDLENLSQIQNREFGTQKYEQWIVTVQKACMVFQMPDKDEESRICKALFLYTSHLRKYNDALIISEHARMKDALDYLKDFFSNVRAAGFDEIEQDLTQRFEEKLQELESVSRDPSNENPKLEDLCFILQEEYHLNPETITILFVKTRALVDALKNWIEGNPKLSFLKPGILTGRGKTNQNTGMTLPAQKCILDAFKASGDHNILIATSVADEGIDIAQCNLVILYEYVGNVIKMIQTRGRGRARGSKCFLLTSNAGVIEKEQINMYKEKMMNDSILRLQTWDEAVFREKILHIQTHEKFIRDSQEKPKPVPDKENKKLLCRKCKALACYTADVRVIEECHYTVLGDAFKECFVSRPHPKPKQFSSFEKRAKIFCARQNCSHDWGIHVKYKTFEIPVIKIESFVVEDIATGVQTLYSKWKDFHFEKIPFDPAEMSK

B1: 5'ppp ds27 (dsRNA)
RNA 1: AUACGUCCUGAUAGUUAGUAUCCAUCG
RNA 2: CGAUGGAUACUAACUAUCAGGACGUAU
modifications: 5'ppp on strand 1
- binding result (Δ190-200 RIG-I): binds
- apparent KD relative to Hel-CTD (WT RIG-I): ~5 fold weaker than Hel-CTD
